In patent US20140162285A1, “Methods of Modulating Vesicular Trafficking” (The General Hospital Corporation, priority 2009, published 2014):
“Also recorded” adds a separate entry of the source. Square brackets hold non-standard residues; d marks the D form. Ends that are not written are not given here. pS = N[C@@H](COP(=O)(O)O)C(=O)O

Columns and labels:
6His-a2N(wt) = molecular target: T1, 6His-a2N(wt) (Mus musculus, UniProt P15920); experiment: ARNO-derived peptide pull-down with in vitro translated 6His-a2N(wt); format: binding; details: 7 nmol biotin-tagged peptide on streptavidin-agarose beads
T1 construct: amino acid residues 1-402 of mouse V-ATPase a2-subunit (a2N1-402); made in house; host or cells: cell-free in vitro translation
T1 sequence (P15920 1-402): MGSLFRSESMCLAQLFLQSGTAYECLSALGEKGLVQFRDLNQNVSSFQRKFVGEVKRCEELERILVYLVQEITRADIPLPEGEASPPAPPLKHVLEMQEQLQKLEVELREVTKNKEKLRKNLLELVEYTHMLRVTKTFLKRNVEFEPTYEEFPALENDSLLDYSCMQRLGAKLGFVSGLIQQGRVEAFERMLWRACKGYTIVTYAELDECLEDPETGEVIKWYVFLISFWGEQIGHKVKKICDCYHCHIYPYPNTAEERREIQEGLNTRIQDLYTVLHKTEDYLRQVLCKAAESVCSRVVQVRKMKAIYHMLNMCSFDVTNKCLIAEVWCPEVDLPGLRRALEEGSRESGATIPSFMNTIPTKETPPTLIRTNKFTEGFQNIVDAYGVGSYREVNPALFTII
Protocol: FIGS. 4B-C are images of Western blots showing (4B) the results of peptide pull-down assays for interaction of a2N with Sec7-PH-linker of ARNO and (4C) phosphorylation-dependent interaction of a2N with ARNO-derived peptide corresponding to the PB-domain of ARNO. Corresponding ARNO-derived peptides were immobilized on streptavidin-beads and incubated with in vitro translated recombinant a2N. Interacting complexes were eluted and analyzed by Western blotting using anti-a2N antibodies.
ARNO-derived peptides, equal amounts (7 nmol) of biotin-tagged synthetic peptides were also immobilized on streptavidin-agarose beads followed by incubation with 10 μl of in vitro translated 6His-a2N(wt) recombinant protein. Pull-down experiments and SDS-PAGE analysis were performed as described above and interacting 6His-a2N/ARNO-derived-peptide complexes were analyzed by Western blotting using polyclonal anti-a2N antibody. All experiments were repeated at least three times with similar results.

GST-ARNO(wt) = molecular target: T2, GST-ARNO(wt) (Homo sapiens, UniProt Q99418); experiment: recombinant protein pull-down of in vitro translated a2N-N / a2N-C with GST-ARNO(wt); format: binding; details: 35S-labeled in vitro translated protein, autoradiography
T2 construct: i) 1-400aa, full length ARNO(wt); made in house; host or cells: E. coli BL21(DE3)
T2 sequence (Q99418 1-400): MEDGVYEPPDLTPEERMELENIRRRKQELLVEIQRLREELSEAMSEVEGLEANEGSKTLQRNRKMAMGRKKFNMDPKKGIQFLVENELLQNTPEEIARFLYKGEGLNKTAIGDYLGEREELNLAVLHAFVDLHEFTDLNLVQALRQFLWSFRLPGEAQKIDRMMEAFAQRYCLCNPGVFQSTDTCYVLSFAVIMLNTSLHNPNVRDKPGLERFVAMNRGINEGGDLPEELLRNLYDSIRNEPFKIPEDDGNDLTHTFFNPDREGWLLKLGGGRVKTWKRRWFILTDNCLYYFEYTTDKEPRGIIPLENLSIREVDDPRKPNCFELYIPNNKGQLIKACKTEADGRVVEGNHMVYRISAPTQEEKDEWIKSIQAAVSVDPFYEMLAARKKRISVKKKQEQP
From the text: FIG. 2C is an image of a Western blot showing that both the amino terminus (a2N-N) and carboxyl terminus (a2N-C) of the cytosolic tail of the a2-subunit interact with ARNO(wt). Left panel, a pull-down (PD) of in vitro translated metabolically labeled a2N-N (a2N1-133) with recombinant GST-only and GST-ARNO(wt) used as a baits. […] Right panel, a pull-down (PD) of in vitro translated metabolically labeled a2N-C (a2N134-393) with recombinant GST-only and GST-ARNO(wt) used as a baits.
The purified recombinant GST-ARNO(wt) and GST-tagged ARNO domain constructs ([…]) were incubated with 10 μl of in vitro translated 6His-a2N recombinant protein at 4° C. for 2 hours in 500 μl of binding buffer (10 mM HEPES, 1 mM EDTA, 1 mM DTT, 100 mM NaCl, 10% glycerol, 0.1% NP-40) with gentle rotation. Then the interacting recombinant proteins were immobilized on glutathione beads by incubation with 50 μl of 50% glutathione Sepharose 4B slurry for 2 hours at 4° C. The beads were collected by centrifugation and washed 5 times with 500 μl ice-cold binding buffer. Interacting proteins were eluted by boiling in SDS-PAGE sample buffer for 10 min at 95° C., resolved by SDS-PAGE and analyzed by Western blotting using polyclonal anti-a2N antibodies. […]

ARNO375-440^P: phosphorylated version (Ser392) of the ARNO PB-domain peptide, SEQ ID NO:33 (VSVDPFYEMLAARKKRI[pS]VKKKQEQP)
interaction of ARNO-derived peptide with a2N (6His-a2N(wt)): completely abolished

Sec7/PH-linker: peptide corresponding to the Sec7/PH-linker region (242-261aa) of ARNO, SEQ ID NO:31 (PFKIPEDDGNDLTHTFFNPD)
interaction of ARNO-derived peptide with a2N (6His-a2N(wt)): reproducibly observed

B1: a2N-C: C-terminal part of a2N, amino acid residues 134-393 of the mouse V-ATPase a2-subunit, in vitro translated (protein)
chain: MSGSHHHHHHSSGIEGRGRLIKMTVTKTFLKRNVEFEPTYEEFPALENDSLLDYSCMQRLGAKLGFVSGLIQQGRVEAFERMLWRACKGYTIVTYAELDECLEDPETGEVIKWYVFLISFWGEQIGHKVKKICDCYHCHIYPYPNTAEERREIQEGLNTRIQDLYTVLHKTEDYLRQVLCKAAESVCSRVVQVRKMKAIYHMLNMCSFDVTNKCLIAEVWCPEVDLPGLRRALEEGSRESGATIPSFMNTIPTKETPPTLIRTNKFTEGFQNIVDAYGVGSYRE
interaction with GST-ARNO(wt) in pull-down (GST-ARNO(wt)): could interact; also recorded: direct interaction

B2: a2N-N: N-terminal part of a2N, amino acid residues 1-133 of the mouse V-ATPase a2-subunit, in vitro translated (protein)
chain: MSGSHHHHHHSSGIEGRGRLIKMTMGSLFRSESMCLAQLFLQSGTAYECLSALGEKGLVQFRDLNQNVSSFQRKFVGEVKRCEELERILVYLVQEITRADIPLPEGEASPPAPPLKHVLEMQEQLQKLEVELREVTKNKEKLRKNLLELVEYTHMLR
interaction with GST-ARNO(wt) in pull-down (GST-ARNO(wt)): could interact; also recorded: direct interaction
